For 15 sequences, protein production results are on record in a protein production outcome set (Wang et al. 2014).

The nature of the data set: label from the status in PepcDB records.

Regarding “MTCEGRRTMTQPISLGHRMSLIDLYDLRMPQRTGTYVLHEENLAIIETGPSPSVPHLLAGLKALHIDPADIRYIIVTHIHLDHAGGVGVLLEHCPNATVIVHPKGKRHLADPSRLIAGAKAVYGEQFDALFDPIVPVPEERLLVKEDGETLVLSAERTLTFYDTPGHANHHFSIYDSYSGGVFTGDTIGVFYPQLQEAGLAFCLPSTSPNQFNPEAMKQSAERLEKLNPTRIYFGHFGALDQPEEAFRQLRFWLPKFVAAGKEVIARHPEAPAAEQAKAVTKLLHNDITAFLNECSIPASSPVYKVIELDLQVCAMGIIDYWRKQRLEHHHHHH”, the protein production result was “not failed”. As for “MTDAPLGRSAVYTILTTGYVGSTGPGVAATVSYVADGGRHVVFDPGMVASRDHILGPLAELGLGPDDITDVVLSHHHPDNTMNVGLFGRATVHDHKVEYLGDQWRNRDAEGYELTPSLRLIRTPGHSLEDITLLAGTDTGVVAFAGDLWWHSDGPADDPVAPDREVLRASRLRVLAAADLIVPGHGSPFKADITAPRLEHHHHHH”, the protein production result was “not failed”. The same measure for “MTDATAEQSVTADADDKPEPYNGLPGAFPYAFRATDSLLFKAYVPVALLLSVAITLVFSFGLITQLAETGSVRGGTFTFSRSFFLFVGLLLVAPLLAPVLSVARRHRRTASSVAYDRALALSAFLFIGSIYLALLTSAPAELREPTQSAVVGFFYSLPPIAGVVPPMLATLGIYLTHRLLK”: “failed”.

In the case of “MTDDLLKPNRPHPLFKLATELGPLLVFFIVNAKFHLFAATGAFMVAVVAAVIASYVVTRHVPVMALVTAVVVLVFGTLTLVLHDETFIKMKPTIVYSLFGAVLAGGLLFGRSFIAIMFDQVFNLTAAGWRKLTLRWALFFFAMALLNEAVWRTQSTDFWVNFKVFGVVPLTMLFALLQMPLTKRYAAEPATLEQSAADEGDVSGR”, the protein production entry is “not failed”. For “MTDESDALCATEKEIMHATHRALVNSGYAELSISRISDELDKAKSTIYHYYDSKDALLLRFLRFTVDRFEATINTSIGDNPKEDLNHIISTLLPCQLPEEKRQLHSVLVTLSPQALERAVFREQFTEIDTRLATIIEKTVRRGVDADVFRDVDPTHAAEHILATIKGTMYSRLTTNREAATAAAKASLFSYIDSHLIS”, the protein production entry is given as “failed”. Regarding “MTDEVSVLFVDFLLEWLEMMRTRVRETTYASYNSGIRQSIIPYFMDKKLTLTDIEENPKYLQDFYQHELSKGLSPNSVLRRHANIRKALQHAFHLGLIKSNPADRIERPKKQDYTALEHHHHHH”, the protein production result is reported as “not failed”. The result for “MTDGEAVSAAAGPGAEGPPGPVGHWAPGSHILWRYRENGGPHVHIARPVTVVRDDADLLAVWLAPGTECVKPVLADGTPVHLEPLATRYTKPRTVQRDQWFGTGVLKLARPGEAWSVWLFWDPGWRFKNWYVNLERPLTRWEGGVDSEDHFLDISVHPDRTWHWRDEDEFAQALRDGLMDPASAGRVRRAGRSAVAEIRAWGSPFADGWEHWRPDPAWPVPSLPGDWDRTPAHVSS” reads “not failed”. “MTDNPFATPTAPVQPPAREVPATTQPYAFIAVLALVTCLSFAVSLGIQWYNDIGEIRQRFSEHLQLMAPHWFTGLVFYAAANLLVLHAYREKRQLVEFRPLALLLIGYGLLNLVCGMLAGIGLAPLTLPFYQWVTAQSSYGVWLMAFNEAMSWVYLLLGSLLPLGLVLLGSRVNSPRLAEGEEARVAAWQVALGAALCFATLCFKLMQFLPYALLRYDEPWLYGLYLSGVALPAALLFGAVCTRLPARLQRFAAGRALLLAVVAMLLWSVALLAVGGGLALLMILGLAPAGIGYTLLVALLGVGLLALLWPIGRLATRWCYADQLAA”: the protein production result is “failed”.

For the sequence “MTDREWPEYPNQSGGETVTGPESAQEEAASERGWEADPPSPASEECQSEEGSNWERTAQEAEEEVPGGQRGEDLGTLGQAQELQEAAPFFQEEGSEPSQTTETSGWKPGMESSEDSREEPDLPAESPESSGQELQEAAALSPEETQVPFQTENAWEPGAERPENPDGGESQEPVAERPSAQPYDQSPAFSRPAPQAPPPVWNPGWQASYRQAPQNYPYGQGQYQGGWHPQQRQVPPPYYGGTPYQAPNPYQNQAPYGYPGQAARNQGQPGYQESRWYPQQPAQPARTGSVPPPSQPPQKEAGELPDAKPPEKKRMNKKTKAFLWVIGAVLVLLGAAMVLYSVGLTSGWFGGETAEPPQASSSTPAPEDDQKLLEIEEIPQDGMMTPNQVYEKVKHSVVAVVTYGQGSDLTDSPISSGSGIVFSEDGYIVTNSHVIGDSNQYPVKMVFTGQDENEEDQEYPAQIVGYDKRTDIAVLKIDAAGLTPAEFADSDQLKVGDTVLSLGNPGVAGENFTNTLTKGMVSAVNRTVTMSSINMQYIQTDAAINPGSSGGALLNLYGQVVGINAAKITTTEIEGICFAIPTNIAKDVINDIVKNGYVSDRVRLGVTIRGLSSYEAEMYNVPQGLVIVGFSSDSEIPSKGAEIGDIITAINGVNTTSSNTLYNELEKFKAGEKVKLTIYRQASGSQRARTFEIEVTLLEARGETQSAVTPTPEAP”, the protein production result was “failed”. The same measure for “MTDTNVLANSATDNQETTHFGFETVRKDEKVHKVAQVFHSVAAKYDIMNDLMSGGIHRLWKRFTIDCSGARPGQRILDLGGGTGDLTAKFSRIVGEKGHVILADINNSMLNVGRDKLRDSGVVGNVHYVQANAEELPFPDNYFDCITISFCLRNVTDKDKALRSMFRVLKPGGRLLVLEFSKPILEPLSKLYDTYSFHILPKMGQLIANDADSYRYLAESIRMHPDQETLKGMMEEAGFEQTTYYNLTGGIVALHRGYKFLEHHHHHH”: “not failed”. The same measure for “MTDTQNRVAMGYIKGVFGIKGWLKIAANTEYSDSLLDYPEWHLVKDGKTISVTLEAGKVVNGELQVKFEGINDRDLAFSLRGYTIEIPREAFAPTEEDEYYWTDLVGMTVVNKDHTVLGKVSNLMETGANDVLMIDGEHGQILIPFVSQYIETVDTGSKTITADWGLDYLEHHHHHH”: “not failed”; for “MTEAGASIVVTVKNEGKNLRELLESIEKNDFTNFETVVVDDLSTDDTEDIVKSYRFTVYKRIACSRGEGRNIGVDLSRYGYILFTDGDAKVSEHWISGMVSALAAGNDAVIGNTLYTGKRRYMQERVKIFLEGIEVTAPSVNLAYRKDRFRQLGGFDPKFVTAEDIDLNIRAVKAGFRFATCDSCVVYAKVRENLASFLRQAYWNGYGRYQLEMKHPGITRNTRVRLGHNFFDFLHMVSGAAGYLSARISEGKQGRLEHHHHHH”: “not failed”; for “MTEDQAFWNAFAPDYAAAEQASRLPIAHDVIAWLRSTQLLPAHSAVDLAAGTGRYAVQMMPWVQELTLIDWSSAMLAFAKERMHQQADTKAQFIVADWRKLHKPLNADMLFVSQLPTLKPQDLKMLMNWASQTVVLNFQTAQSDALLEQAASLLGLQLPPVYQADPARMISFKVWLTAQRIPFQSHSLTYEIEEQTTLSDLLPDLATPIGLKTAASLAKAITGHENTHVQVTDRLTYTYTQLVWHVLEHHHHHH”: “failed”. As to “MTEEAAAQQTPVPGMTGPRRAAVGFIFITIALDMLSLGMILPILPKLIESFSDDNTANAARIYGLFGTAWALMQLFASPILGGLSDRFGRRPVILLSNLGLGLDYVLMALAPSLWWLFVGRVISGITSASISTSFAYIADVTPAEKRAAVFGMVGAAFGLGFTFGPAIGGLLGGVDPRLPFWVAAALSLANTLYGLFVLPESLPRDRRSPFRWKSANPIGAVRLLSSNARLAALAVVEFCAEVAHVALPATFVLYTGYRYAWDQTTIGLALAFVGVCTTIVQGGLVGPAVKLLGERNAQIIGYGGGALGFLIYALAPSGTLFWIGIPVMTLWGIAGPATSGMMTRLVSPSQQGQLQGATTSVKSVAELIGPFLFTMIFAYFIDAGAPLQLPGAPFLLAGALLVVSVVIVAFASPAADSKQAPQAAPES”, the protein production entry is “failed”. “MTEFALDTSTGITIIVLFGVFWVAFGYWLGRKNRSHEDFALAGRNVGFAFAAATAMATWVTSNTTLVAPQLTYQFGIWGMVGYSFAALGLVLFAPMAKRIKELLPNGYTSGDFVRLRYGNLAWLVFIIISVVYAFGWLISLGMAGGILLESLSGLDYHIGMTTILVICVGYTLFGGMRAVIATDFIQALIIIVGVSFIAYWIIDNVGLESIHSNLTSEHPQLLDMLFPAAVMFLFNNIFFGLGEIFHSNVWWSRALSFKKNVAYKAYLTGGLLWLPIPIVTGFIALAAPQLGIFPPSPDMIGPTVAAAVLGKAGAIIVFIVIFSALASSLDSLLAATSDLVTQDIFHKKLKPKASDKTLMRFNRSCILGLGVVTWLLCLPRVATLGALLNFAGAFVASTIWPIVLGLYHRRLTGTYAACAMGFGTAFGMLSYFVVGFYVAALVSCAVSGLICLVGIFRSSDKFDWDTLNEKEQSNANQ”: the protein production result is “failed”.
